Values quoted from earlier work as cited in paper PMC5750235.

Biological target: IgE (Homo sapiens) (UniProt P01854)
Sequence (P01854 whole entry): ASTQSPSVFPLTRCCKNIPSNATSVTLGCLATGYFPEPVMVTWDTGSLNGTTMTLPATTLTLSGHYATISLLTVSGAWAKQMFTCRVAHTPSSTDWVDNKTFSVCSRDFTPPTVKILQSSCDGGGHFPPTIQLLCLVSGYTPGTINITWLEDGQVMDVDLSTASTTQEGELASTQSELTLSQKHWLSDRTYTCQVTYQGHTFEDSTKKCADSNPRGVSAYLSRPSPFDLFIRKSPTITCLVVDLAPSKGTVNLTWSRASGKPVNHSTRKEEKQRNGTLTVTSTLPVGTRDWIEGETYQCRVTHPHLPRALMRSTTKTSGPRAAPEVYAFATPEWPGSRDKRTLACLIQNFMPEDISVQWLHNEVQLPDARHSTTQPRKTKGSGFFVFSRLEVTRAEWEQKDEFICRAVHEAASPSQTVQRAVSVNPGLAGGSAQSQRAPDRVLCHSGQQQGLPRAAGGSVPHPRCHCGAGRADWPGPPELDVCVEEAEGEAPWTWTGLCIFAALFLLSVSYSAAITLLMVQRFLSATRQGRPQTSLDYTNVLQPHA

Sequence of CD23 (P06734 48-321): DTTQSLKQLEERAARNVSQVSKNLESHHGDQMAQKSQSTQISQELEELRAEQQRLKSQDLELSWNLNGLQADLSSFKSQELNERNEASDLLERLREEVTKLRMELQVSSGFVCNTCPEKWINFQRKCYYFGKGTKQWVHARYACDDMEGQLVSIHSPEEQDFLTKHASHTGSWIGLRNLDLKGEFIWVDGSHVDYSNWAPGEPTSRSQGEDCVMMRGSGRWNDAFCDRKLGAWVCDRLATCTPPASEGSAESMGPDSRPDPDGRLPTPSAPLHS

Substance: CD23 (from UniProt P06734)
- Kd: 2000 nM
